Assay results taken from the supplement of paper PMC7877785.
± gives the uncertainty stated by the source.

Assay: self-splicing fitness, log relative to wild type (ln ratio); higher = more splicing; Tetrahymena group I intron in knt gene, E. coli kanamycin selection, DiMSum; sequences stand for … in CUCUCU…GGAGGGAAAAGUUAUCAGGCAUGCACCUGGUAGCUAGUCUUUAAACCAAUAGAUUGCAUCGGUUUAAAAGGCAAGACCGUCAAAUUGCGGGAAAGGGGUCAACAGCCGUUCAGUACCAAGUCUCAGGGGAAACUUUGAGAUGGCCUUGCAAAGGGUAUGGUAAUAAGCUGACGGACAUGGUCCUAACCACGCAGCCAAGUCCUAAGUCAACAGAUCUUCUGUUGAUAUGGAUGCAGUUCACAGACUAAAUGUCGGUCGGGGAAGAUGUAUUCUUCUCAUAAGAUAUAGUCGGACCUCUCCUUAAUGGGAGCUAGCGGAUGAAGUGAUGCAACACUGGAGCCGCUGGGAACUAAUUUGUAUGCGAAAGUAUAUUGAUUAGUUUUGGAGUACUCGUGGUCG
Procedure, shortened: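 Six replicate transformations of E. coli BL21(DE3) with a pET-22b(+) library were grown overnight at 37°C or 30°C. The library randomised all eight P1ex-region intron nucleotides, the intron lying in the knt kanamycin-resistance gene, and plates were LB agar with or without 25 μg/mL kanamycin plus 100 μg/mL carbenicillin, 50 μM IPTG and 0.2% rhamnose. Pooled colonies were amplicon-sequenced on an Illumina HiSeq 2500, and fitness is the DiMSum error-weighted combination of wild-type-normalised replicate fold changes, kanamycin versus none.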

Sequence	self-splicing fitness (ln) (30 °C)	self-splicing fitness (ln) (37 °C)
UCUUAGCAAUAUUACGCGCC	-3.51 ± 0.22	-2.42 ± 0.22
UCUUAGCAAUAUUACGCGCG	-3.05 ± 0.25	-1.76 ± 0.17
UCUUAGCAAUAUUACGCGGA		-2.03 ± 0.41
UCUUAGCAAUAUUACGCGGG	-2.21 ± 0.22	-2.5 ± 0.34
UCUUAGCAAUAUUACGCUAA	-2.71 ± 0.35	
UCUUAGCAAUAUUACGCUGU	-3.65 ± 0.37	-1.45 ± 0.26
UCUUAGCAAUAUUACGGAUC		-1.69 ± 0.36
UCUUAGCAAUAUUACGGGUC	-3.28 ± 0.32	-2.68 ± 0.41
UCUUAGCAAUAUUACGGUGC	-3.26 ± 0.33	-1.9 ± 0.33
UCUUAGCAAUAUUACGUCAU	-1.86 ± 0.32	
UCUUAGCAAUAUUACGUGAU	-2.43 ± 0.28	-2.01 ± 0.38
UCUUAGCAAUAUUACGUGUG	-2.13 ± 0.13	-0.484 ± 0.099
UGAAAGCAAUAUUACGAACA	-0.213 ± 0.064	0.349 ± 0.08
UGAAAGCAAUAUUACGACAA	0.219 ± 0.1	-0.111 ± 0.13
UGAAAGCAAUAUUACGACGG	-0.788 ± 0.1	-0.64 ± 0.1
UGAAAGCAAUAUUACGAGAG	-4.15 ± 0.33	-1.61 ± 0.14
UGAAAGCAAUAUUACGAUCC	-0.303 ± 0.14	0.92 ± 0.18
UGAAAGCAAUAUUACGCCAA	-1.13 ± 0.15	-0.806 ± 0.18
UGAAAGCAAUAUUACGCUGG	-2.59 ± 0.16	-1.27 ± 0.19
UGAAAGCAAUAUUACGGAAU	-3.12 ± 0.18	-0.0346 ± 0.15

Sequence	self-splicing fitness (ln) (30 °C)	self-splicing fitness (ln) (37 °C)
UGAAAGCAAUAUUACGGACG	-0.186 ± 0.084	0.54 ± 0.12
UGAAAGCAAUAUUACGGAGU	-3.82 ± 0.28	-2.84 ± 0.19
UGAAAGCAAUAUUACGGAUA	-1.56 ± 0.13	-1.1 ± 0.14
UGAAAGCAAUAUUACGGCCU	-0.0439 ± 0.16	0.493 ± 0.18
UGAAAGCAAUAUUACGGCGC	-1.78 ± 0.21	-0.486 ± 0.23
UGAAAGCAAUAUUACGGCGG	-1.03 ± 0.085	-0.221 ± 0.14
UGAAAGCAAUAUUACGGCUU	-1.62 ± 0.13	-1.81 ± 0.2
UGAAAGCAAUAUUACGGGCU	-2.04 ± 0.16	-1.97 ± 0.27
UGAAAGCAAUAUUACGGGGA	-1.92 ± 0.21	-0.977 ± 0.19
UGAAAGCAAUAUUACGGUCA	-0.166 ± 0.077	0.339 ± 0.1
UGAAAGCAAUAUUACGUCCU	-0.649 ± 0.091	-0.195 ± 0.081
UGAAAGCAAUAUUACGUCGG	-1.12 ± 0.065	-0.446 ± 0.082
UGAAAGCAAUAUUACGUGUC	-0.712 ± 0.15	-2.32 ± 0.21
UGACAGCAAUAUUACGAAAA	-2.4 ± 0.35	-1.29 ± 0.19
UGACAGCAAUAUUACGAAUG	-0.535 ± 0.086	-0.604 ± 0.1
UGACAGCAAUAUUACGACAG	-0.934 ± 0.065	0.0335 ± 0.084
UGACAGCAAUAUUACGACGU	-1.48 ± 0.099	-0.473 ± 0.13
UGACAGCAAUAUUACGAGAG	-3.08 ± 0.14	-1.75 ± 0.11
UGACAGCAAUAUUACGAGUA	-2.37 ± 0.17	-0.712 ± 0.11
